The data set deals with the molecule itself. The data set is described as follows: self-association: overnight incubation at 37 °C in pH neutral buffer, SDS-PAGE on a 4-20% gradient gel. The procedure: Protein preparations of the N-terminal (21.5 kDa) and C-terminal (18.5 kDa) were incubated at 4 μM concentration in pH neutral buffer and incubated overnight at 37° C.

B1: N-terminal portion of tau protein (amino acids 1-184) (other, UniProt P10636-8 1-184, looked up)
chain: MAEPRQEFEVMEDHAGTYGLGDRKDQGGYTMHQDQEGDTDAGLKESPLQTPTEDGSEEPGSETSDAKSTPTAEDVTAPLVDEGAPGKQAAAQPHTEIPEGTTAEEAGIGDTPSLEDEAAGHVTQARMVSKSKDGTGSDDKKAKGADGKTKIATPRGAAPPGQKGQANATRIPAKTPPAPKTPPS
notes: range 1-184; Printed mass 21.5 kDa, charge approximately -7.2; also called tau fragment (21.5 KD) that encompasses the N-terminus; N-terminal (21.5 kDa)
B1: the binding result is recorded as “no binding (tested: 4 µM)”.

The record behind these values is patent US20210395319A1 (OLIGOMERIX, published 2021).
